Assay results published in patent US10711041B2, “Lyophilisate containing a cyclic peptide of formula X1-[sequence]-X2” (priority 2013, dated 2020).
Bridges are numbered along the chain shown (N, C = ends). Where no end group is shown, it is not given here.

Target: T1, amilorid-sensitive Sodium Ion Channel (ENaC) (Homo sapiens, UniProt P37088)
T1 construct: Macroscopic Sodium Ion Currents were derived from human lung epithelian cells A549; endogenous in cells; host or cells: A549 human lung epithelial cells
T1 sequence (P37088 1-669): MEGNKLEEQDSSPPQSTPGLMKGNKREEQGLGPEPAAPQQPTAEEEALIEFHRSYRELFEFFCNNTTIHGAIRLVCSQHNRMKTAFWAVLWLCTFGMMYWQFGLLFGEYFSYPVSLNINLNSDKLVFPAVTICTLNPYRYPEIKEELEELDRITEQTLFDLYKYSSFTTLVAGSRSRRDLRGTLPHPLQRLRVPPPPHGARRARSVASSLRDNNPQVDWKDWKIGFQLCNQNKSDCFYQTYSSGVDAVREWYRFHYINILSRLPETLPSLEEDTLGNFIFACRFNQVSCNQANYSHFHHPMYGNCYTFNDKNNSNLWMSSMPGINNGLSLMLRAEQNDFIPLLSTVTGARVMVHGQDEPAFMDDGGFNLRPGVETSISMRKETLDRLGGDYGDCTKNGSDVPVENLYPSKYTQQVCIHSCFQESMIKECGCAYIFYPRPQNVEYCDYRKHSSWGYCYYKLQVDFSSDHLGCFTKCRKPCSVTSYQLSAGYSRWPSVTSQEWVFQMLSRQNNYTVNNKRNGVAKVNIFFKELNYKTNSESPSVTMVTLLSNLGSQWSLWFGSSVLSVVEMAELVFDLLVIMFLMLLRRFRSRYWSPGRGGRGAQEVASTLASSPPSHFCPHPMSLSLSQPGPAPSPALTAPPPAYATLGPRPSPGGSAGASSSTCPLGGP
T1 sequence (P51168 1-640 partner): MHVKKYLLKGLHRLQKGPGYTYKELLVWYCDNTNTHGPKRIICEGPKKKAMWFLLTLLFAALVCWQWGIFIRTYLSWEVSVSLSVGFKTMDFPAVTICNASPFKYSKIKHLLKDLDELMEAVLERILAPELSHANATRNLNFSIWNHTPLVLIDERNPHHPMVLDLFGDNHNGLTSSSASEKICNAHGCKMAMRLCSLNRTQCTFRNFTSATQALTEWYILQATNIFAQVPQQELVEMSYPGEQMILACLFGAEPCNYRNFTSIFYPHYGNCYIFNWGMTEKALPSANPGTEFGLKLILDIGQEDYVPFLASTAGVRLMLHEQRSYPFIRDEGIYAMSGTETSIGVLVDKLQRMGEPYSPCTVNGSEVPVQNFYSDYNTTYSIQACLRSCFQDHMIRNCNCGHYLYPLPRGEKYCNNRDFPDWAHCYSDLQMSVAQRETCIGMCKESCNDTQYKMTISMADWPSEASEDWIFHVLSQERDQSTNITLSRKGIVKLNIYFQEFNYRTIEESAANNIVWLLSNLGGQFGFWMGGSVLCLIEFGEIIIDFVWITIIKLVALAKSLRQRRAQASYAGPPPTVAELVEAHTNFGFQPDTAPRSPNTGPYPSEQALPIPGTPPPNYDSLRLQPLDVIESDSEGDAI
T1 sequence (P51170 1-649 partner): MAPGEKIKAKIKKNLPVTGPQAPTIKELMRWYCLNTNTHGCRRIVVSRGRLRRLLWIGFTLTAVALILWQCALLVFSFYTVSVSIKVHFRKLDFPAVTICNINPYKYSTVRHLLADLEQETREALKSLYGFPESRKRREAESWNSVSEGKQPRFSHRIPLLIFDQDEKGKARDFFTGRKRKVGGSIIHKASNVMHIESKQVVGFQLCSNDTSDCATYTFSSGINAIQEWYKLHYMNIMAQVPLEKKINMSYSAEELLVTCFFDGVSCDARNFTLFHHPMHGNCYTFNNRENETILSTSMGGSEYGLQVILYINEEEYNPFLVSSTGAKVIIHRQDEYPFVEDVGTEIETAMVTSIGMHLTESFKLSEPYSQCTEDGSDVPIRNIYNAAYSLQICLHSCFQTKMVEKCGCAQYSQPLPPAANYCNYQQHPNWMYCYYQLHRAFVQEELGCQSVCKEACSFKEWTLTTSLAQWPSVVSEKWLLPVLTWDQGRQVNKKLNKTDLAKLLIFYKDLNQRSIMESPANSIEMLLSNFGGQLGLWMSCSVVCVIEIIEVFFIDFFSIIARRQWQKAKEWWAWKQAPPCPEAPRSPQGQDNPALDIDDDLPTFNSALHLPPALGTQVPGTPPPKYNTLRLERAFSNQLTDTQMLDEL
Test: Patch Clamp whole cell sodium current in deglycosylated (PNGase F) and untreated A549 cells
Type: cell-based
Conditions: peptide 240 nM, Eh = −100 mV
Method: […] After control recordings, 240 nM of the peptide of amino acid sequence SEQ ID NO:1 was added to the bath solution. […] Whole cell currents were recorded at Eh=−100 mV. The concentration of the peptides of amino acid sequence SEQ ID NO:1 to SEQ ID NO:7 in the bath solution was 240 nM.

Compound | whole cell sodium current (no pretreatment with PNGase F) | whole cell sodium current (no pretreatment with PNGase F, listed as SEQ ID NO:7) | whole cell sodium current (pre-treatment with PNGase F)
Cyclo(CGQREAPAGAAAKPWYC) (disulfide 1-17) [SEQ ID NO: 7, reference compound] | No activity | no activity | No activity
C[C@@H]1NC(=O)CNC(=O)[C@H](CCC(=O)O)NC(=O)[C@@H]2CCCN2C(=O)[C@H]([C@@H](C)O)NC(=O)[C@H](CCC(=O)O)NC(=O)[C@H](CCCNC(=N)N)NC(=O)[C@H](CCC(N)=O)NC(=O)CNC(=O)[C@@H](N)CSSC[C@@H](C(=O)O)NC(=O)[C@H](Cc2ccc(O)cc2)NC(=O)[C@H](Cc2c[nH]c3ccccc23)NC(=O)[C@@H]2CCCN2C(=O)[C@H](CCCCN)NC(=O)[C@H](C)NC(=O)[C@H](CCC(=O)O)NC1=O [SEQ ID NO: 1] | 1073.3 ± 15.1 pA | – | 19.6 pA (n = 3)
